{"source": "patent US10407662B2", "about": "“Method of culturing pluripotent stem cell, and polypeptide to be used therefor” (FUJIFILM Corporation, priority 2012, dated 2019)", "molecules": {"B1": {"name": "RCP-11: comparative recombinant polypeptide, GPLG + positions 1-459; corresponds to the sequence of natural human vitronectin (protein)", "chain": "GPLGDQESCKGRCTEGFNVDKKCQCDELCSYYQSCCTDYTAECKPQVTRGDVFTMPEDEYTVYDDGEEKNNATVHEQVGGPSLTSDLQAQSKGNPEQTPVLKPEEEAPAPEVGASKPEGIDSRPETLHPGRPQPPAEEELCSGKPFDAFTDLKNGSLFAFRGQYCYELDEKAVRPGYPKLIRDVWGIEGPIDAAFTRINCQGKTYLFKGSQYWRFEDGVLDPDYPRNISDGFDGIPDNVDAALALPAHSYSGRERVYFFKGKQYWEYQFQHQPSQEECEGSSLSAVFEHFAMMQRDSWEDIFELLFWGRTSAGTRQPQFISRDWHGVPGQVDAAMAGRIYISGMAPRPSLAKKQRFRHRNRKGYRSQRGHSRGRNQNSRRPSRATWLSLFSSEESNLGANNYDDYRMDWLVPATCEPIQSVFFFSGDKYYRVNLRTRRVDTVDPPYPRSIAQYWLGCPAPGHL", "modifications": "Synthetic Peptide CRP-11"}, "B2": {"name": "Natural vitronectin: human vitronectin (extracted from human plasma, BD Biosciences) (protein, listed as Homo sapiens)", "chain": "DQESCKGRCTEGFNVDKKCQCDELCSYYQSCCTDYTAECKPQVTRGDVFTMPEDEYTVYDDGEEKNNATVHEQVGGPSLTSDLQAQSKGNPEQTPVLKPEEEAPAPEVGASKPEGIDSRPETLHPGRPQPPAEEELCSGKPFDAFTDLKNGSLFAFRGQYCYELDEKAVRPGYPKLIRDVWGIEGPIDAAFTRINCQGKTYLFKGSQYWRFEDGVLDPDYPRNISDGFDGIPDNVDAALALPAHSYSGRERVYFFKGKQYWEYQFQHQPSQEECEGSSLSAVFEHFAMMQRDSWEDIFELLFWGRTSAGTRQPQFISRDWHGVPGQVDAAMAGRIYISGMAPRPSLAKKQRFRHRNRKGYRSQRGHSRGRNQNSRRPSRATWLSLFSSEESNLGANNYDDYRMDWLVPATCEPIQSVFFFSGDKYYRVNLRTRRVDTVDPPYPRSIAQYWLGCPAPGHL", "modifications": "glycosylated, plasma-derived"}, "B3": {"name": "RCP-5: recombinant polypeptide, Met + human vitronectin positions 1-55, 302-341, 342-373 (protein)", "chain": "MDQESCKGRCTEGFNVDKKCQCDELCSYYQSCCTDYTAECKPQVTRGDVFTMPEDEFWGRTSAGTRQPQFISRDWHGVPGQVDAAMAGRIYISGMAPRPSLAKKQRFRHRNRKGYRSQRGHSRGRNQN", "modifications": "Synthetic Peptide RCP-5"}, "B4": {"name": "RCP-6: recombinant polypeptide, Met + human vitronectin positions 1-55, 269-459, C274S (protein)", "chain": "MDQESCKGRCTEGFNVDKKCQCDELCSYYQSCCTDYTAECKPQVTRGDVFTMPEDESQEESEGSSLSAVFEHFAMMQRDSWEDIFELLFWGRTSAGTRQPQFISRDWHGVPGQVDAAMAGRIYISGMAPRPSLAKKQRFRHRNRKGYRSQRGHSRGRNQNSRRPSRATWLSLFSSEESNLGANNYDDYRMDWLVPATSEPIQSVFFFSGDKYYRVNLRTRRVDTVDPPYPRSIAQYWLGSPAPGHL", "modifications": "Synthetic Peptide RCP-6", "notes": "recombinant polypeptide, Met + human vitronectin positions 1-55, 269-459, C274S"}, "B5": {"name": "RCP-7: recombinant polypeptide, Met + human vitronectin positions 1-55, 269-373, C274S (protein)", "chain": "MDQESCKGRCTEGFNVDKKCQCDELCSYYQSCCTDYTAECKPQVTRGDVFTMPEDESQEESEGSSLSAVFEHFAMMQRDSWEDIFELLFWGRTSAGTRQPQFISRDWHGVPGQVDAAMAGRIYISGMAPRPSLAKKQRFRHRNRKGYRSQRGHSRGRNQN", "modifications": "Synthetic Peptide RCP-7", "notes": "recombinant polypeptide, Met + human vitronectin positions 1-55, 269-373, C274S"}, "B6": {"name": "RCP-8: recombinant polypeptide, Met + human vitronectin positions 1-55, 269-373, 374-379, C274S (protein)", "chain": "MDQESCKGRCTEGFNVDKKCQCDELCSYYQSCCTDYTAECKPQVTRGDVFTMPEDESQEESEGSSLSAVFEHFAMMQRDSWEDIFELLFWGRTSAGTRQPQFISRDWHGVPGQVDAAMAGRIYISGMAPRPSLAKKQRFRHRNRKGYRSQRGHSRGRNQNSRRPSR", "modifications": "Synthetic Peptide RCP-8", "notes": "recombinant polypeptide, Met + human vitronectin positions 1-55, 269-373, 374-379, C274S"}, "B7": {"name": "RCP-17: recombinant polypeptide, Met + SEQ ID NO:38; vitronectin positions 1-55, 269-277, 295-341, 342-373, C274S (printed as RCP-11 in Table 2) (protein)", "chain": "MDQESCKGRCTEGFNVDKKCQCDELCSYYQSCCTDYTAECKPQVTRGDVFTMPEDESQEESEGSEDIFELLFWGRTSAGTRQPQFISRDWHGVPGQVDAAMAGRIYISGMAPRPSLAKKQRFRHRNRKGYRSQRGHSRGRNQN", "modifications": "Synthetic Peptide RCP-17"}, "B8": {"name": "RCP-2: recombinant polypeptide, Met + human vitronectin positions 1-55, 342-373 (protein)", "chain": "MDQESCKGRCTEGFNVDKKCQCDELCSYYQSCCTDYTAECKPQVTRGDVFTMPEDEPRPSLAKKQRFRHRNRKGYRSQRGHSRGRNQN", "modifications": "Synthetic Peptide RCP-2"}, "B9": {"name": "RCP-3: recombinant polypeptide, Met + human vitronectin positions 1-55, 322-341, 342-373 (protein)", "chain": "MDQESCKGRCTEGFNVDKKCQCDELCSYYQSCCTDYTAECKPQVTRGDVFTMPEDEGVPGQVDAAMAGRIYISGMAPRPSLAKKQRFRHRNRKGYRSQRGHSRGRNQN", "modifications": "Synthetic Peptide RCP-3"}, "B10": {"name": "RCP-4: recombinant polypeptide, Met + human vitronectin positions 1-55, 312-341, 342-373 (protein)", "chain": "MDQESCKGRCTEGFNVDKKCQCDELCSYYQSCCTDYTAECKPQVTRGDVFTMPEDEQPQFISRDWHGVPGQVDAAMAGRIYISGMAPRPSLAKKQRFRHRNRKGYRSQRGHSRGRNQN", "modifications": "Synthetic Peptide RCP-4"}}, "format_in_all_cases": "cell-based", "key": {"[1]": {"tested_on": "human iPS cells", "assay": "Cell Adhesiveness Evaluation 2 (synthetic peptide inhibition of cell adhesion to natural vitronectin)", "details": "100 μM synthetic peptide", "experimental": "Polypeptides listed in Table 7 were synthesized by Emoc solid phase synthesis. A surface to which natural vitronectin was adsorbed at a concentration of 130 pmol/m^2, and thereafter, a cell suspension to which 100 μM of the above-described synthetic peptide was added was seeded at a rate of 30,000 cells/well. The number of adherent cells after 24 h post seeding was calculated by the same technique as in <Cell Adhesiveness Evaluation 1>."}, "[2]": {"tested_on": "human iPS cells", "assay": "Proliferation Evaluation of iPS cells on polypeptide-coated plate", "details": "for The Number (%) of Cells after 3 Days: 5000 cells/well", "experimental": "The iPS cells collected in the same manner as in <Cell Adhesiveness Evaluation 1>described above were seeded on a 96-well plate, to which RCP-1, RCP-11, and the natural human vitronectin were adsorbed, at a rate of 250 cells/well, and were cultured in a 5% CO2 incubator at 37° C. for 8 days. The number of adherent cells after each lapse of time was measured by the same method as in <Cell Adhesiveness Evaluation 1> described above, to obtain proliferation curves, The proliferation curves were indicated in FIG. 2. In FIG. 2, a black rhombus represents an example in which RCP-1 was used, while a black tetragon represents an example in which RCP-11 was used.\nSimilarly, each of samples from […] was prepared so as to have an addition concentration listed in Table 8 with each of from RCP-1 to RCP-10, and RCP-17, and Human Recombinant Laminin-511 as a reference, was seeded on a 96-well plate, to which each polypeptide was adsorbed, at a rate of 5000 cells/well in the same manner as in<Cell Adhesiveness Evaluation 1> described above, and was cultured in a CO2 incubator at 37° C. for 3 days. The number of cells after the 3 days was measured by the same method as in <Cell Adhesiveness Evaluation 1> described above."}, "[3]": {"tested_on": "human iPS cells", "assay": "Evaluation of Maintenance of Undifferentiation (colony form, NANOG staining)", "details": "for form of iPS cell colonies: FIG. 3, TESR2, subculture every six days; for NANOG expression (immunostaining): FIG. 4; for NANOG expression (immunostaining) / maintenance of undifferentiated state: cultured for 1 month", "experimental": "iPS cells collected in the same manner as in <Cell Adhesiveness Evaluation 1> described above were suspended in TESR2. Induced pluripotent stem cells (iPS cells) were seeded on a 6-well plate (Tissue Culture-Treated, Falcon) to which each of the sample 1, the sample 2, the sample 5, the sample 6, and the sample 7 used in <Cell Adhesiveness Evaluation 1> described above was adsorbed in the same manner as in <Cell Adhesiveness Evaluation 1>, and were cultured in a CO2 incubator at 37° C. The culture medium was replaced by a fresh culture medium every day except the next day after the seeding. Subculture was performed by the same method as mentioned above every six days.\nThe cells were cultured under these conditions for 1 month, thereafter immobilized with 4% paraformaldehyde, and made to have membrane permeability enhanced with 1% Triton-X/PBS. Blocking treatment was performed with an Image IT Signal Enhancer (Invitrogen), followed by adding an anti-human NANOG antibody (AF1997, R&D Systems, Inc), ALEXA FLUOR 555-CONJUGATE rabbit anti-goat IgG antibody (Invitrogen), and DAPI (Dojindo Laboratories), by performing labeling, and by photographing the cells with a fluorescence microscope.\nIn each of FIG. 3 and FIG. 4, “A”, “B”, “C” “D”, and “E” show iPS cells cultured on RCP-1, iPS cells cultured on RCP-11, iPS cells cultured on the natural human vitronectin, iPS cells cultured on rinaminin-5, and iPS cells cultured on rLaminin-511, respectively. Scale bar: 100 μm. In FIG. 3, overall colony images are shown in the left column, while magnified images are shown in the right column; and in FIG. 4, DAPI-stained images are shown in the left column while anti-NANOG antibody-stained images are shown in the right column. Scale bars in FIGS. 3 and 4: 200 μm."}}}
{"molecule": "CCTDYTAECKPQVTRGDVFT [Peptide-5]", "values": [{"measurement": "inhibition of cell adhesion to natural vitronectin (in words)", "setting": "[1]", "value": "significantly inhibited"}]}
{"molecule": "CCTDYTAECKPQVTRGEVFT [Peptide-7]", "values": [{"measurement": "inhibition of cell adhesion to natural vitronectin (in words)", "setting": "[1]", "value": "adhesion inhibition did not occur"}]}
{"molecule": "DKKCQCDELCSYYQSCCTDY [Peptide-4]", "values": [{"measurement": "inhibition of cell adhesion to natural vitronectin (in words)", "setting": "[1]", "value": "significantly inhibited"}]}
{"molecule": "DQESCKGRCTEGFNVDKKCQ [Peptide-1]", "values": [{"measurement": "inhibition of cell adhesion to natural vitronectin (in words)", "setting": "[1]", "value": "adhesion inhibition did not occur"}]}
{"molecule": "EGFNVDKKCQCDELCSYYQS [Peptide-3]", "values": [{"measurement": "inhibition of cell adhesion to natural vitronectin (in words)", "setting": "[1]", "value": "adhesion inhibition did not occur"}]}
{"molecule": "KGRCTEGFNVDKKCQCDELC [Peptide-2]", "values": [{"measurement": "inhibition of cell adhesion to natural vitronectin (in words)", "setting": "[1]", "value": "adhesion inhibition did not occur"}]}
{"molecule": "Laminin-511: recombinant laminin (Human Recombinant Laminin-511: Biolamina)", "values": [{"measurement": "The Number (%) of Cells after 3 Days", "setting": "[2]; addition amount 1.28 μg/cm^2", "value": 56.8, "unit": "%"}]}
{"molecule": "B1", "values": [{"measurement": "number of cells smaller than that of RCP-1, as fraction of RCP-1", "setting": "[2]; culture day 8, FIG. 2", "value": "around ⅓"}, {"measurement": "form of iPS cell colonies", "setting": "[3]", "value": "homogeneous colony and a form characteristic for undifferentiated cells having a high nucleus occupying rate"}, {"measurement": "NANOG expression (immunostaining)", "setting": "[3]", "value": "strongly expressed NANOG in an overall colony"}, {"measurement": "maintenance of undifferentiated state", "setting": "[3]", "value": "undifferentiated state was favorably maintained"}]}
{"molecule": "B2", "values": [{"measurement": "form of iPS cell colonies", "setting": "[3]", "value": "homogeneous colony and a form characteristic for undifferentiated cells having a high nucleus occupying rate"}, {"measurement": "NANOG expression (immunostaining)", "setting": "[3]", "value": "strongly expressed NANOG in an overall colony"}, {"measurement": "maintenance of undifferentiated state", "setting": "[3]", "value": "undifferentiated state was favorably maintained"}]}
{"molecule": "B3", "values": [{"measurement": "The Number (%) of Cells after 3 Days", "setting": "[2]; addition amount 10 μg/cm^2", "value": 121.2, "unit": "%"}]}
{"molecule": "B4", "values": [{"measurement": "The Number (%) of Cells after 3 Days", "setting": "[2]; addition amount 20 μg/cm^2", "value": 70.5, "unit": "%"}]}
{"molecule": "B5", "values": [{"measurement": "The Number (%) of Cells after 3 Days", "setting": "[2]; addition amount 5 μg/cm^2", "value": 89.9, "unit": "%"}]}
{"molecule": "B6", "values": [{"measurement": "The Number (%) of Cells after 3 Days", "setting": "[2]; addition amount 5 μg/cm^2", "value": 171.0, "unit": "%"}]}
{"molecule": "B7", "values": [{"measurement": "The Number (%) of Cells after 3 Days", "setting": "[2]; addition amount 5 μg/cm^2", "value": 153.5, "unit": "%"}]}
{"molecule": "B8", "values": [{"measurement": "The Number (%) of Cells after 3 Days", "setting": "[2]; addition amount 20 μg/cm^2", "value": 81.7, "unit": "%"}]}
{"molecule": "B9", "values": [{"measurement": "The Number (%) of Cells after 3 Days", "setting": "[2]; addition amount 20 μg/cm^2", "value": 109.7, "unit": "%"}]}
{"molecule": "B10", "values": [{"measurement": "The Number (%) of Cells after 3 Days", "setting": "[2]; addition amount 20 μg/cm^2", "value": 120.7, "unit": "%"}]}
